Source: article PMC8080067, “Tight binding of cytochrome b5 to cytochrome P450 17A1 is a critical feature of stimulation of C21 steroid lyase activity and androgen synthesis” (The Journal of Biological Chemistry, 2021)

Experiments:
P450 17A1 = test system: P450 17A1; design: method as in PMID 30468857; conditions: SPR; cited from earlier work
WT P450 17A1 = target: T1, WT P450 17A1 (Homo sapiens, UniProt P05093); assay type: biochemical; design: made in house; host or cells: Escherichia coli (P450 17A1 in JM109)
T1 sequence (P05093 1-508): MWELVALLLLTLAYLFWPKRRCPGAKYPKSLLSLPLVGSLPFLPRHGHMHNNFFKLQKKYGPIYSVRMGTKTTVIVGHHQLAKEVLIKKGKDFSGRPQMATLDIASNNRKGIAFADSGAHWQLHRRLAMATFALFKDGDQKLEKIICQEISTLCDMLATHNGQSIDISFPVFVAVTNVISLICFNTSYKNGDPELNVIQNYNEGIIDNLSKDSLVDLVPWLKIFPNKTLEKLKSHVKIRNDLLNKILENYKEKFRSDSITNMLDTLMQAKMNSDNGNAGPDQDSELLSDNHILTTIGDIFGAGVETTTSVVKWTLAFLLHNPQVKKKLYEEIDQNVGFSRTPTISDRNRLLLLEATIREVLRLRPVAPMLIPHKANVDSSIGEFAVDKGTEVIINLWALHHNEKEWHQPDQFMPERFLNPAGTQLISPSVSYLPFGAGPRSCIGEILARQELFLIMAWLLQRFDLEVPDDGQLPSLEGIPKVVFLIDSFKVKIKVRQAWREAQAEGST
Description: Figure S4. Stimulation of lyase activities by b5, T70C- b5, and NanoTemper Blue-T70C-b5. Catalytic assays for the lyase reactions were performed and analyzed as described in the main text.

P450 17A1 R358Q variant = target: T2, P450 17A1 R358Q variant (Homo sapiens, UniProt P05093, R358Q)
T2 sequence (P05093 1-508 R358Q): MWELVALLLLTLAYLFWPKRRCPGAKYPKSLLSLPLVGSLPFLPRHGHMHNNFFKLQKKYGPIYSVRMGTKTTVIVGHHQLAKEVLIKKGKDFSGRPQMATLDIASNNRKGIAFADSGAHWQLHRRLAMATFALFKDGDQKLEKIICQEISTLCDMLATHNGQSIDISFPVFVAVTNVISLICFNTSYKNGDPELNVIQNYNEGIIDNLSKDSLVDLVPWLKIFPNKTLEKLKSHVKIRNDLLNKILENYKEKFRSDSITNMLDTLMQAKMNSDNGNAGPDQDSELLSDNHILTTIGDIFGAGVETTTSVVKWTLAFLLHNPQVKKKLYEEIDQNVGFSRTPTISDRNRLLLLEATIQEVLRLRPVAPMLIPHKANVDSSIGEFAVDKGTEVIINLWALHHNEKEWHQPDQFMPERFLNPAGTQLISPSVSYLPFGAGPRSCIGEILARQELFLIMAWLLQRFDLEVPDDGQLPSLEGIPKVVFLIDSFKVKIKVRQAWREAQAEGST
Description: (§1) P450 catalytic activity assays to measure steroid hydroxylation and lyase reactions were carried out as described previously ([23], [37], [64]).
(§2) The reactions were initiated by adding an NADPH-regenerating system (final concentrations of 15 mM glucose 6-phosphate, 1.5 mM NADP^+, and 1 IU ml^−1 glucose 6-phosphate dehydrogenase) ([75]) and terminated by quenching and extracting with 2.0 ml CH2Cl2. Aliquots of the organic phases were dried and then dissolved in 100 μl of a CH3CN/H2O (1:1, v/v) mixture. […] The extraction procedure was then repeated, and the (Δ^4) reaction products were analyzed in a Waters Acquity UPLC system using a BEH C18 octadecylsilane column (2.1 mm × 100 mm, 1.7 μm). The reaction products were resolved using a mobile phase composed of solvents A (70% CH3OH, 30% H2O, v/v) and B (CH3CN), at a flow rate of 0.2 ml min^−1. The mobile phase linear gradient proceeded as follows: 0 to 1 min, 5% B; 4 min, 30% B; 4.5 min, 40% B; 4.55 to 6.75 min, 95% BA; and 7 to 10 min, 5% B. The reaction products were identified by coelution with commercial standards and quantified by the A243 peak areas. Steady-state kinetic parameters were estimated using nonlinear regression of hyperbolic fits in GraphPad Prism software, with equations used for kcat and the specificity constant kcat/Km ([76]): Y = (ksp ∗ X)/(1 + (ksp ∗ X/kcat)) and then deriving Km by division.

P450 17A1 R347H variant = target: T3, P450 17A1 R347H variant (Homo sapiens, UniProt P05093, R347H)
T3 sequence (P05093 1-508 R347H): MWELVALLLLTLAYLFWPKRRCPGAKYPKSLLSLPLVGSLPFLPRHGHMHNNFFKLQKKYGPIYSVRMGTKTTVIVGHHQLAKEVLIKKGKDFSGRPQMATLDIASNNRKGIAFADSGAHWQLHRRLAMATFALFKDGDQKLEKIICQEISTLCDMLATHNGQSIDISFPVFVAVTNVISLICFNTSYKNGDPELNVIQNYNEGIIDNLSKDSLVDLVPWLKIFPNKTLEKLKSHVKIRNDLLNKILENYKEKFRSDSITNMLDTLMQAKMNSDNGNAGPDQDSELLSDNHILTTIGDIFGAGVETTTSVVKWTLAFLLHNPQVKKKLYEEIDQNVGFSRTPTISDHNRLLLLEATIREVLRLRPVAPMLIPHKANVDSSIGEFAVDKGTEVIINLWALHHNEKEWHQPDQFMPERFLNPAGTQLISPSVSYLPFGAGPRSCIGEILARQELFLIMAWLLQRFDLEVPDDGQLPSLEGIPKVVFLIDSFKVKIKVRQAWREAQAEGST
Description: as §1, §2

B1: b5: recombinant human cytochrome b5, unlabeled (protein)
chain: MAEQSDEAVKYYTLEEIQKHNHSKSTWLILHHKVYDLTKFLEEHPGGEEVLREQAGGDATENFEDVGHSTDAREMSKTFIIGELHPDDRPKLNKPPETLITTIDSSSS
- on-rate constants (P450 17A1): 360 to 5000 M⁻¹ s⁻¹
- stimulation of lyase activities (WT P450 17A1): stimulated by b5 in a concentration-dependent manner
- stimulation of lyase reactions (P450 17A1 R358Q variant): did not display b5 concentration-dependent stimulation
- stimulation of lyase reactions (P450 17A1 R347H variant): did not display b5 concentration-dependent stimulation
